T1: Human rhinovirus serotype 3 (HRV3), purified virion (human rhinovirus serotype 3, UniProt Q82081 562-855; Q82081 70-331; Q82081 332-561; Q82081 2-69)
T1 construct: domain: VP1;domain: VP2;domain: VP3;domain: VP4; also called [35S]-HRV3
T1 sequence 1: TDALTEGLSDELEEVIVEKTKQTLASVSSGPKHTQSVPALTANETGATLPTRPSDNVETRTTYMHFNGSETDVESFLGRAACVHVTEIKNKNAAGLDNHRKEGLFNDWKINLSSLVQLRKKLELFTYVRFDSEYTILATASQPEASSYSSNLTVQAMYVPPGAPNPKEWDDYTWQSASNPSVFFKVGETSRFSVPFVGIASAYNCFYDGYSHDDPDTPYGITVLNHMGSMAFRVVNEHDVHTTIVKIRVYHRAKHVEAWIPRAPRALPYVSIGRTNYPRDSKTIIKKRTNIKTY
T1 sequence 2: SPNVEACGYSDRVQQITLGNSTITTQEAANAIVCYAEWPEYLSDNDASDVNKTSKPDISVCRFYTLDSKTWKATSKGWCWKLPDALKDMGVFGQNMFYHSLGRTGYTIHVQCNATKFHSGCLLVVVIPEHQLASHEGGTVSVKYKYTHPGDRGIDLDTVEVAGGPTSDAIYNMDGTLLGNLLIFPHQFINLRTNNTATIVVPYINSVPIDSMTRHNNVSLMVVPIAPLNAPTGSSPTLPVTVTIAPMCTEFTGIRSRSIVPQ
T1 sequence 3: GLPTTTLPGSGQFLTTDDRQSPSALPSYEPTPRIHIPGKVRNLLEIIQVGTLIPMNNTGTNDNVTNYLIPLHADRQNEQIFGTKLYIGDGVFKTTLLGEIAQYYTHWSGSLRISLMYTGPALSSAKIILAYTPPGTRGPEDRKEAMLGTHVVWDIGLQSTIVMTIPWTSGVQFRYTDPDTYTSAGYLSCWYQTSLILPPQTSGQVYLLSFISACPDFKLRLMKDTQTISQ
T1 sequence 4: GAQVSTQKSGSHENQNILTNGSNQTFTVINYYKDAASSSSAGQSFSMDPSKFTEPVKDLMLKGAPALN

B1: Transmembrane intercellular adhesion molecule-1 (tmICAM-1) (receptor, human, UniProt P05362 28-532, looked up)
chain: QTSVSPSKVILPRGGSVLVTCSTSCDQPKLLGIETPLPKKELLLPGNNRKVYELSNVQEDSQPMCYSNCPDGQSTAKTFLTVYWTPERVELAPLPSWQPVGKNLTLRCQVEGGAPRANLTVVLLRGEKELKREPAVGEPAEVTTTVLVRRDHHGANFSCRTELDLRPQGLELFENTSAPYQLQTFVLPATPPQLVSPRVLEVDTQGTVVCSLDGLFPVSEAQVHLALGDQRLNPTVTYGNDSFSAKASVSVTAEDEGTQRLTCAVILGNQSQETLQTVTIYSFPAPNVILTKPEVSEGTEVTVKCEAHPRAKVTLNGVPAQPLGPRAQLLLKATPEDNGRSFSCSATLEVAGQLIHKNQTRELRVLYGPRLDERDCPGNWTWPENSQQTPMCQAWGNPLPELKCLKDGTFPLPIGESVTVTRDLEGTYLCRARSTQGEVTRKVTVNVLSPRYEIVIITVVAAAVIMGTAGLSTYLYNRQRKIKKYRLQQAQKGTPMKPNTQATPP
notes: mature; also called HRR; human rhinovirus receptor
B2: tICAM(453) (receptor)
chain: QTSVSPSKVILPRGGSVLVTCSTSCDQPKLLGIETPLPKKELLLPGNNRKVYELSNVQEDSQPMCYSNCPDGQSTAKTFLTVYWTPERVELAPLPSWQPVGKNLTLRCQVEGGAPRANLTVVLLRGEKELKREPAVGEPAEVTTTVLVRRDHHGANFSCRTELDLRPQGLELFENTSAPYQLQTFVLPATPPQLVSPRVLEVDTQGTVVCSLDGLFPVSEAQVHLALGDQRLNPTVTYGNDSFSAKASVSVTAEDEGTQRLTCAVILGNQSQETLQTVTIYSFPAPNVILTKPEVSEGTEVTVKCEAHPRAKVTLNGVPAQPLGPRAQLLLKATPEDNGRSFSCSATLEVAGQLIHKNQTRELRVLYGPRLDERDCPGNWTWPENSQQTPMCQAWGNPLPELKCLKDGTFPLPIGESVTVTRDLEGTYLCRARSTQGEVTRKVTVNVLSPRYE
notes: range 1-453; On the UniProt precursor it is shifted by the length of the signal peptide; also called truncated ICAM, domains I-V; entire extracellular domain of ICAM-1
B3: tICAM(185) (receptor)
chain: QTSVSPSKVILPRGGSVLVTCSTSCDQPKLLGIETPLPKKELLLPGNNRKVYELSNVQEDSQPMCYSNCPDGQSTAKTFLTVYWTPERVELAPLPSWQPVGKNLTLRCQVEGGAPRANLTVVLLRGEKELKREPAVGEPAEVTTTVLVRRDHHGANFSCRTELDLRPQGLELFENTSAPYQLQTF
notes: range 1-185; On the UniProt precursor it is shifted by the length of the signal peptide; also called truncated ICAM, domains I and II; two N-terminal domains of ICAM-1

Columns and labels:
[1] = target: T1, Human rhinovirus serotype 3 (HRV3), …; assay: dot-blot, normalised [35S]-HRV3 binding of immobilised ICAM against that of immobilised tICAM(453)
[2] = target: T1, Human rhinovirus serotype 3 (HRV3), …; assay: pelleting assay, [35S]-cysteine-labelled ICAM mixed with HRV3 and centrifuged; average of 4 experiments
[3] = target: T1, Human rhinovirus serotype 3 (HRV3), …; assay: solid-phase competition, soluble ICAM against [35S]-HRV3 binding to ICAM-1-coated plates, 0.1% Triton X-100; average of three experiments ± S.D.
[4] = target: T1, Human rhinovirus serotype 3 (HRV3), …; assay: cell-based or functional assay
[5] = target: T1, Human rhinovirus serotype 3 (HRV3), …; assay: cell-based or functional assay; remark: listed apart in the source
[6] = target: T1, Human rhinovirus serotype 3 (HRV3), …; assay: solid-phase competition against [35S]-HRV3 binding to ICAM-1-coated plates

Binder | ratio ICAM/tICAM (453) [1] | % ICAM Pelleted [2] [%] | IC50 [3] [µM] | neutralization IC50 in Assay III relative to tICAM(185) [4] [fold] | IC50, neutralization of HRV3 infectivity, Assay I (continuous) [5] [µM] | IC50, neutralization of HRV3 infectivity, Assay II (Pretreatment) [5] [µM] | IC50, neutralization of HRV3 infectivity, Assay III (high MOI) [5] [µM] | fold higher IC50 than tmICAM [6] [fold] | fold difference of IC50 against tICAM(453) [6] [fold]
B1 | 2.3 | 11.6 | 0.008 |  |  |  |  |  | 
B2 |  | 1 | 3.1 | 11 | 0.38 | < 20 | 1.2 | 350 | 
B3 |  | 4.3 | 9.7 |  | 8.2 | < 20 | 13.2 | 1000 | 3
